{"source": "the supplement of paper PMC10567573", "parents": {"B1": {"name": "CCDC6 (parent)", "chain": "FTPPTSLTRAGMSYYNSPGLHVQH"}, "B2": {"name": "DYRK1B (parent)", "chain": "KKVLNHGYDDDNHDYIVRSGERWL"}}}
{"variants_of": "B1", "assay": "protein stability index of a GFP-peptide fusion (GPS, HEK-293T) (PSI 1-6); higher = more stable", "details": "c terminus: a fixed tail appended"}
{"variant": "V22G", "protein stability index": 2.01}
{"variant": "V22Q", "protein stability index": 1.56}
{"variant": "V22L", "protein stability index": 1.95}
{"variant": "V22A", "protein stability index": 1.7}
{"variant": "V22R", "protein stability index": 2.01}
{"variant": "V22F", "protein stability index": 1.51}
{"variant": "S6L", "protein stability index": 2.45}
{"variant": "S6K", "protein stability index": 1.51}
{"variant": "S6D", "protein stability index": 1.79}
{"variant": "S6R", "protein stability index": 2.47}
{"variant": "S6N", "protein stability index": 1.84}
{"variant": "S6T", "protein stability index": 1.73}
{"variant": "S6Y", "protein stability index": 1.84}
{"variant": "S6H", "protein stability index": 1.66}
{"variant": "S6Q", "protein stability index": 2.21}
{"variant": "S6I", "protein stability index": 2.2}
{"variant": "S6C", "protein stability index": 2.1}
{"variant": "S6M", "protein stability index": 1.65}
{"variant": "G11A", "protein stability index": 1.96}
{"variant": "G11S", "protein stability index": 2.23}
{"variant": "G11K", "protein stability index": 1.19}
{"variant": "G11I", "protein stability index": 1.49}
{"variant": "G11Q", "protein stability index": 1.98}
{"variant": "G11L", "protein stability index": 1.97}
{"variant": "G11E", "protein stability index": 1.84}
{"variant": "G11R", "protein stability index": 1.68}
{"variant": "G11F", "protein stability index": 1.68}
{"variant": "G11C", "protein stability index": 1.71}
{"variant": "G11H", "protein stability index": 1.69}
{"variant": "F1L", "protein stability index": 1.89}
{"variant": "F1M", "protein stability index": 3.01}
{"variant": "F1H", "protein stability index": 2.9}
{"variant": "F1A", "protein stability index": 2.65}
{"variant": "F1Y", "protein stability index": 1.91}
{"variant": "F1C", "protein stability index": 1.52}
{"variant": "F1P", "protein stability index": 2.82}
{"variant": "F1S", "protein stability index": 2.01}
{"variant": "F1R", "protein stability index": 2.19}
{"variant": "F1Q", "protein stability index": 2.64}
{"variant": "F1V", "protein stability index": 2.41}
{"variant": "F1K", "protein stability index": 2.49}
{"variant": "S13T", "protein stability index": 1.39}
{"variant": "S13K", "protein stability index": 2.11}
{"variant": "S13L", "protein stability index": 1.73}
{"variant": "S13A", "protein stability index": 2.18}
{"variant": "S13V", "protein stability index": 1.97}
{"variant": "S13R", "protein stability index": 1.87}
{"variant": "S13M", "protein stability index": 1.34}
{"variant": "S13G", "protein stability index": 1.39}
{"variant": "S13I", "protein stability index": 1.69}
{"variant": "S13H", "protein stability index": 1.67}
{"variant": "S13C", "protein stability index": 1.55}
{"variant": "S13F", "protein stability index": 2.54}
{"variant": "S13Y", "protein stability index": 1.86}
{"variant": "S13N", "protein stability index": 1.77}
{"variant": "M12C", "protein stability index": 1.68}
{"variant": "M12H", "protein stability index": 2.33}
{"variant": "M12T", "protein stability index": 2.16}
{"variant": "M12L", "protein stability index": 2.21}
{"variant": "M12P", "protein stability index": 2.56}
{"variant": "M12I", "protein stability index": 2.02}
{"variant": "M12V", "protein stability index": 1.99}
{"variant": "M12D", "protein stability index": 2.19}
{"variant": "M12W", "protein stability index": 2.4}
{"variant": "M12G", "protein stability index": 1.57}
{"variant": "M12A", "protein stability index": 1.84}
{"variant": "M12K", "protein stability index": 2.2}
{"variant": "M12R", "protein stability index": 1.79}
{"variant": "M12N", "protein stability index": 2.12}
{"variant": "T8N", "protein stability index": 2.06}
{"variant": "T8E", "protein stability index": 1.41}
{"variant": "T8L", "protein stability index": 1.78}
{"variant": "T8I", "protein stability index": 2.14}
{"variant": "T8P", "protein stability index": 2.46}
{"variant": "T8S", "protein stability index": 1.83}
{"variant": "T8Y", "protein stability index": 1.5}
{"variant": "T8A", "protein stability index": 1.76}
{"variant": "T8Q", "protein stability index": 2.53}
{"variant": "T8C", "protein stability index": 2.73}
{"variant": "T8H", "protein stability index": 1.56}
{"variant": "T8V", "protein stability index": 1.85}
{"variant": "L7V", "protein stability index": 1.56}
{"variant": "L7T", "protein stability index": 1.89}
{"variant": "L7C", "protein stability index": 2.61}
{"variant": "L7R", "protein stability index": 2.04}
{"variant": "L7H", "protein stability index": 2.28}
{"variant": "L7Y", "protein stability index": 2.39}
{"variant": "L7D", "protein stability index": 1.62}
{"variant": "L7K", "protein stability index": 2.59}
{"variant": "L7E", "protein stability index": 2.12}
{"variant": "L7N", "protein stability index": 1.7}
{"variant": "L7A", "protein stability index": 2.21}
{"variant": "L7Q", "protein stability index": 2.38}
{"variant": "L7G", "protein stability index": 1.66}
{"variant": "Q23L", "protein stability index": 2}
{"variant": "Q23V", "protein stability index": 2.3}
{"variant": "Q23F", "protein stability index": 1.92}
{"variant": "Q23M", "protein stability index": 1.31}
{"variant": "Q23W", "protein stability index": 3.23}
{"variant": "Q23K", "protein stability index": 2.34}
{"variant": "Q23D", "protein stability index": 1.69}
{"variant": "Q23S", "protein stability index": 1.43}
{"variant": "Q23R", "protein stability index": 2.08}
{"variant": "Q23I", "protein stability index": 2.46}
{"variant": "Q23N", "protein stability index": 1.2}
{"variant": "Q23Y", "protein stability index": 2.06}
{"variant": "Q23G", "protein stability index": 1.56}
{"variant": "Q23C", "protein stability index": 1.65}
{"variant": "Q23A", "protein stability index": 1.74}
{"variant": "Q23P", "protein stability index": 1.79}
{"variant": "Q23H", "protein stability index": 1.88}
{"variant": "P4D", "protein stability index": 2.23}
{"variant": "P4Y", "protein stability index": 3.21}
{"variant": "P4F", "protein stability index": 1.97}
{"variant": "P4C", "protein stability index": 2.3}
{"variant": "P4T", "protein stability index": 2.27}
{"variant": "P4I", "protein stability index": 1.51}
{"variant": "P4M", "protein stability index": 2.04}
{"variant": "P4N", "protein stability index": 3.07}
{"variant": "P4L", "protein stability index": 4.29}
{"variant": "P4Q", "protein stability index": 2.48}
{"variant": "P4S", "protein stability index": 1.42}
{"variant": "P4E", "protein stability index": 1.99}
{"variant": "P4H", "protein stability index": 2.19}
{"variant": "P4A", "protein stability index": 1.15}
{"variants_of": "B2", "assay": "protein stability index of a GFP-peptide fusion (GPS, HEK-293T) (PSI 1-6); higher = more stable", "details": "c terminus: a fixed tail appended"}
{"variant": "I16N", "protein stability index": 3.24}
{"variant": "I16G", "protein stability index": 3.71}
{"variant": "I16S", "protein stability index": 3.68}
{"variant": "I16H", "protein stability index": 3.23}
{"variant": "G20D", "protein stability index": 3.22}
{"variant": "G20H", "protein stability index": 2.67}
{"variant": "G20P", "protein stability index": 3.2}
{"variant": "G7A", "protein stability index": 3.47}
{"variant": "G7Q", "protein stability index": 3.12}
{"variant": "R18L", "protein stability index": 2.39}
{"variant": "R18D", "protein stability index": 3.78}
{"variant": "N12P", "protein stability index": 2.78}
{"variant": "N12C", "protein stability index": 2.67}
{"variant": "N5Q", "protein stability index": 3.01}
{"variant": "L4K", "protein stability index": 3.68}
{"variant": "L4F", "protein stability index": 2.59}
{"variant": "W23P", "protein stability index": 3.7}
{"variant": "W23A", "protein stability index": 3.81}
{"variant": "W23D", "protein stability index": 4.73}
{"variant": "D10A", "protein stability index": 3.02}
{"variant": "E21W", "protein stability index": 2.57}
{"variant": "E21A", "protein stability index": 2.97}
{"variant": "D9Y", "protein stability index": 2.17}
{"variant": "D9K", "protein stability index": 2.87}
{"variant": "D11A", "protein stability index": 3.09}
{"variant": "D11I", "protein stability index": 2.5}
{"variant": "S19A", "protein stability index": 3.57}
{"variant": "S19F", "protein stability index": 2.29}
{"variant": "L24H", "protein stability index": 3.57}
{"variant": "L24I", "protein stability index": 3.33}
{"variant": "L24P", "protein stability index": 3.82}
{"variant": "R22N", "protein stability index": 3.31}
{"variant": "V17F", "protein stability index": 2.74}
{"variant": "H6G", "protein stability index": 3.26}
{"variant": "H6E", "protein stability index": 3.44}
{"variant": "Y15G", "protein stability index": 3.82}
{"variant": "K1S", "protein stability index": 3.23}
{"variant": "K1F", "protein stability index": 2.41}
{"variant": "K1E", "protein stability index": 3.24}
{"variant": "K1Q", "protein stability index": 2.74}
{"variant": "K1D", "protein stability index": 3.62}
{"variant": "H13L", "protein stability index": 2.59}
